How the values were obtained:
[1] = molecular target: T1, ELP-N (construct 5); experiment: co-precipitation with ELP-N by ammonium sulfate
T1 construct: also called ELP intein N-fragment

[2] = molecular target: NC1A-CBD (construct 12); experiment: cell-based or functional assay
[3] = molecular target: T1, ELP-N (construct 5); experiment: lysates mixed 10 min at room temperature, 0.4 M ammonium sulfate precipitation of the ELP complex, SDS-PAGE
[4] = molecular target: T2, NC1A-CBD (construct 12); experiment: capture from E. coli lysate on chitin-bound NC1A-CBD, 0.5 mM ZnCl2, SDS-PAGE densitometry
T2 construct: free in solution in the kinetic assays
Method: Sample purification via SIRP (FIG. 14): A disposable column containing 150 μL chitin resin was loaded with soluble lysate containing NC1A-CBD in Buffer A (0.5 M NaCl, 10 mM Tris-HCl, pH 8.0) and washed 4 times with 10 column volumes (CV) of Buffer B (0.5 M NaCl, 50 mM NaPOi, pH 6.0). All loading and washing steps were performed in batch phase. The last wash was supplemented with 0.5 mM ZnCl₂. […] The column was subsequently washed with 10 CV of Buffer B with ZnCl₂ (0.5 mM) and finally incubated in 4 CV of Buffer A containing 50 mM DTT at room temperature for 30 min or at 6° C. for 3 h.

B1: C*-CAT (construct 9) (other)
chain: MIKIATRKYLGKQNVYGIGVERDHNFALKNGFIASNCFNASMEKKITGYTTVDISQWHRKEHFEAFQSVAQCTYNQTVQLDITAFLKTVKKNKHKFYPAFIHILARLMNAHPEFRMAMKDGELVIWDSVHPCYTVFHEQTETFSSLWSEYHDDFRQFLHIYSQDVACYGENLAYFPKGFIENMFFVSANPWVSFTSFDLNVANMDNFFAPVFTMGKYYTQGDKVLMPLAIQVHHAVCDGFHVGRMLNELQQYCDEWQGGALEHHHHHH
notes: also called C*-chloramphenicol acetyl transferase
[1]
  binding result: binds

B2: C*-PTDH (construct 6) (other)
chain: MIKIATRKYLGKQNVYGIGVERDHNFALKNGFIASNCFNASMLPKLVITHRVHEEILQLLAPHCELITNQTDSTLTREEILRRCRDAQAMMAFMPDRVDADFLQACPELRVIGCALKGFDNFDVDACTARGVWLTFVPDLLTVPTAELAIGLAVGLGRHLRAADAFVRSGKFRGWQPRFYGTGLDNATVGFLGMGAIGLAMADRLQGWGATLQYHARKALDTQTEQRLGLRQVACSELFASSDFILLALPLNADTLHLVNAELLALVRPGALLVNPCRGSVVDEAAVLAALERGQLGGYAADVFEMEDWARADRPQQIDPALLAHPNTLFTPHIGSAVRAVRLEIERCAAQNILQALAGERPINAVNRLPKANPAADLEHHHHHH
notes: also called NpuDnaE C-fragment Asp118Gly fused to phosphite dehydrogenase
[2]
  percent of PTDH cleaved from C*-PTDH within 30 seconds, 1:1 molar ratio, 50 mM DTT, 22 C and 6 C: ~50%
[3]
  binding result: binds
[4]
  molar ratio of bound C*-POI to NC1A-CBD: 0.35 molar ratio

— patent publication US20150353597A1 (TEXAS A AND M UNIVERSITY SYSTEM, published 2015)
